Data taken from the DeepSol protein solubility set.

Assay: soluble on expression in E. coli; label from the status in PepcDB or PDB records

Row | Sequence | soluble on expression in E. coli
1 | MISAAPYRDRVVHHALYNIIVPIFERTFISDSYANRVGFGSHRALRRFTQFSRSSHYVFQADIRKYFPSIDHKILKHLIYRKIKCPDTLWLINTIIDNSNFQEPVINYFPGDNLLAPLERRCGLPIGNLTSQFFANVYLNNFDHFVKEQLQAFKYIRYVDDFALFSDDKAFLETARVIIEEYLTSLRLKIHPIKSQLFETKHGANFVGFRILPNQIRVRSDNLRLGRKRLRQMLRDYDEGKIDAQHLTQSTQSWVAHLKHGDTWQLRQRIFSSSIFDLAMLILEHHHHHH | soluble
2 | MISAHVWADAQRLWDFQQMGHEPHPCSVAIGLGSHDLGVAETTAELYHRGMAPVIVFTGATSRTTHERMPRGEAEHYRERAVELGVPERAILVEPNARNTGENIRLSRALLEDLGMPVTSVLLVSKPYEERRAYATARKLWPNVEWVCVSTSMTLPDYVKSIGDARLVIDMLVGAQQRLMVYPRQGFMIKQEIPEPIMTAYEHLRGHGFTSRLVPETAEQTLEHHHHHH | soluble
3 | MISCSEEGSNKILVAISLDRDESQNVLSWAINVLAKPSDTVVALHLLVGEEPRKLPMKKKKRTQIRHAKAHVISMLGEFAYTCCHNQVNLEAKVGFSSNIGRGLIDEVKSISAHYLVLSRPTTHEFR | soluble
4 | MISDSKLLASAAWDAQSLNELKAKASEDPAANIRPVARQVEGMFVQMMLKSMRDALPKDGLFSSEHTRLYTSMYDQQIAQQMTAGKGLGLAEMMVKQMTPEQPLPEESTPAAPMKFPLETVVRYQNQTLSQLVQKAVPRNYDDSLPGDSRAFLAQLSLPAQLASQQSGVPHHLILAQAALESGWGQRQIRRENGEPSYNLFGVKASGNWKGQVTEITTTEYENGEAKKVKAKFRVYSSYLEALSDYVGLLTRNPRYAAVTTAASAEQGAQVLQDAGYATDPHYARKLTNMIQQMKSISDKVSKTYSMNIDNLF | not soluble
5 | MITAEKKKKNKFLPNFDKQSIYSLRFDEMQNWLVEQGQQKFRAKQIFEWLYQKRVDSIDEMTNLSKDLRQLLKDNFTVTTLTTVVKQESKDGTIKFLYELQDGYTIETVLMRHDYGNSVCVTTQVGCRIGCTFCASTLGGLKRNLEAGEIVSQVLTVQKALDATEERVSQIVIMGIGEPFENYDEMMDFLRIVNDDNSLNIGARHITVSTSGIIPRIYDFADEDIQINFAVSLHAAKDEVRSRLMPINRAYNVEKLIEAIQYYQEKTNRRVTFEYGLFGGVNDQLEHARELAHLIKGLNCHVNLIPVNHVPERNYVKTAKNDIFKFEKELKRLGINATIRREQGSDIDAACGQLRAKERQVETRLEHHHHHH | not soluble
6 | MITELRPNPYQPRKHFNKEAIQELSASIKEHGILQPLIARKSIKGYEIVAGERRYRAAKEAGLEKVPAVVRQLNEQQMMEFALLENLQREDLNPMEEAMAYQMLMNELNVTQEQLAKCLGKSRPYIANYTRLLSLPSFVQDMIANGQLSMAHGRTLLTIKDEEQLKSLLKRIEKEGLNVRQLEKIVQEINQSVSRETKQVKKERNIFFIERETFLREKFGTDVKIKETKKEKGKIEIEFFNKEDLNRILELLAQKN | not soluble
7 | MITIEKYSPERHEQTCELSVLEEQSQFTVADVGEMLTRLEPTELPHLILADDDVVGFFLFDAAYSEKYDFCPKNSLGVRALLVDHRHQGKGIAKQAIQQFADFAKHHYPEFDALYLTVNCRNIPAYQCYLKSGFEDTNELYHGGPVGPQHIMRQPL | not soluble
8 | MITILGAGKVGMATAVMLMMRGYDDLLLIARTPGKPQGEALDLAHAAAELGVDIRISGSNSYEDMRGSDIVLVTAGIGRKPGMTREQLLEANANTMADLAEKIKAYAKDAIVVITTNPVDAMTYVMYKKTGFPRERVIGFSGILDSARMAYYISQKLGVSFKSVNAIVLGMHGQKMFPVPRLSSVGGVPLEHLMSKEEIEEVVSETVNAGAKITELRGYSSNYGPAAGLVLTVEAIKRDSKRIYPYSLYLQGEYGYNDIVAEVPAVIGKSGIERIIELPLTEDEKRKFDEAVQAVKKLVETLPPQLRE | soluble
9 | MITIRNKIGQMLIMGFHGSELHDNSPVAQWLSNDGLGGVLLFDKDLSTGIYGKNLRNQAQIKQLIRQLNRYASMISGGNDNLPLFTAIDYEGGVVDRLSKIEGCPPTMKARELAKLSSDDFDEEVTQMAMTLQSLGFNLNFAPVVDLNLNAHAGIIGNLGRSFSSNPEVTIRLAKQFVDVFSRYGIACAYKHFPGHGSATGDTHEGFVDVTETFQTDELIPYRSLLKDLSNPFMVMTAHVINKHLDSKGLPATLSYDVLTLLLRQSIGYDGVIISDDLQMHAISNHYSLEDALCLTINAGADMVIFANQLGTITPPEVIDVIEKLVIDKQIPYQRIDEAYRRIVRLKQQIICSELINT | not soluble
10 | MITLTKKQMEEMLAHARQALPNEACGLLGGRRDGDDRWVERVYPLNNLDQSPEHFSMDPREQLTAVKDMRKNGWVMLGNFHSHPATPARPSAEDKRLAFDPSLSYLIISLAEPQKPVCKSFLIKKDGVDEEEIILKEELEHHHHHH | soluble
11 | MITPKVLSGFKDRLPKDAIQKAQLLAKVSVVFQSFGFVPIETPHLEYAQTLLPDASSDIQKEIYRFKDHGDRDVALRFDLTVPLARFVSLHHQTLGMPFKRYAIGNVFRGERAQKGRYREFTQCDFDFIGSESLVCDAEIIQVIVASLKALDLEDFCVSINHRKILNGICEYFGISQVNEALRIVDKLEKIGLNGVEEELKKECGLNSNTIKELLELIQIKQNDLSHAEFFEKIAYLKDYNENLKKGIQDLERLYQLLGDLQISQNLYKIDFSIARGLGYYTGIVYETTLNEMKSLGSVCSGGRYDHLTKNFSKENLQGVGASIGIDRLIVALSEMQLLDERSTQAKVLIACMHEEYFSYANRLAESLRQSGIFSEVYPEAQKIKKPFSYANHKGHEFVAVIGEEEFKSETLSLKNMHSGMQLNCLSFLKALEIIGENDEDL | not soluble
12 | MITQGPNLIGIHANEKENIETKKFVNWFLNQSITDWNSNNQQKNSDQTTKTAAEYFTDQASYILPLKEKFNKSSDLELKGSSSSSNLTTSSASASLLISNNSSTASSPAPKKTNNNSNTFTAKALELFQQAANNEIIPFSDPSDFRNGTFRNNISSSFNAAVNSK | soluble
13 | MIVGSHQQYVVPSYSAAYVPSAYAYPSVYSPYVAAAAYPSVWAWGSNKNKDDAAPRAFARPSALLNNQKPTTA | not soluble
14 | MIVIEGSDKFKIAKEYIDVEYTLFSKVTFRYEKLKFKDNAELEKIKMFKYKNGYIPNKLNLSFGYGFSSYKKQIIRETVDTLRLTEIFSSENIEDIKFIKDGTKKLEISIEKVVKFKRRKKRNYVCCYCPDMYRDIKLDKESINKIYNRKIKIEREVNIFEDEDVIINKKVLKFPKSWTKNMQKYWLSENKYPIHSTVIDDDRYKCCNVQYTKNRVIILYYIYNH | not soluble
15 | MIVLGIESSCDETGLAIYDYSKKKLIADELYSQVKLHKKYGGVVPELASREHIAKLNLLAKKIFKETGLSFEDIDCIAYTAMPGLVGALMVGATFAKTLGLIHNIDTIAVHHLEGHLLSPLLDHNSNIEYPFVALLVSGGHTQLFEVKEFGEYSLLGESIDDAAGEAFDKTTKLLGMGYPGGVEVANLADQATDKSKYILPRPMKNKPNLDFSFSGLKTAVLNTWYDEQDQSLENKANLCYAFQDAAIDVLVSKCAKALQKTKNTRLVISGGVSANKLLRHQLDLLAKNRGYQIFFPPMKYCTDNGAMIALAGAYRYVNGFKDSNLEINVKARSPL | soluble
16 | MIVPKGNENIRPGYAMEPKYITIHETANTSKGANALNHAKYLDNQARGNTDRSASWHFTVDDKEIYQHLPLNEVGWHAGNKTGNYESIGIEIAVNSDGNYTKAVENAKKLAAYLMNELNISLDHVQKHQFWSGKNCPAFMIQRGQWDAFLKGTNAYYNEHHKDVIPPPEVPHEKDDITGGWYEQDIRQLAARKIMFGDGNGSYWPNRLVTRAEFANLMSRALNLPAGNAKFTDLNEAHPSLVDGINRAASAGIINGRGNNKFDPNATITRDEAVIMIDRALEYNWIYRKEVKLPFTDQHLAYDKKALQNVYAYGIVKGNERNEFVPKGTATRAESAAFLNRMLKVIEA | not soluble
17 | MIYNKTINGLKVFIKDNDPFYEQVLNDFLTCRVKTLKVFRSIDDTKVILIDTARGPLVLKVYAPKHKMTERFLKSCIKKDYYENLIYQTDRVRGEGIQSINDYFLLAERKTLNFAHYYIMLIEYIEGVGLNEYLEISEDLKDQLSESIKELHQHGMVSGDPHKGNFIVSEKGLRLIDLSGKKTTAVLKAKDRIDLERHYNIKNELKDFGYTYLIFKKKIKKVIRDVKVKLGLKSKLEHHHHHH | not soluble
18 | MIYQKQRNTAETQLNISISDDQSPSHINTGVGFLNHMLTLFTFHSGLSLNIEAQGDIDVDDHHVTEDIGIVIGQLLLEMIKDKKHFVRYGTMYIPMDETLARVVVDISGRPYLSFNASLSKEKVGTFDTELVEEFFRAVVINARLTTHIDLIRGGNTHHEIEAIFKAFSRALGIALTATDDQRVPSSKGVIE | soluble
19 | MKAIAGLTVNIKQGEFVYVVGPSGAGKSTFIKMMYREEKPSTGSINVNGLVIETLAERDVPYFRRQLGVIFQDFKLLPKLTVYENVAFALEVIEEEPDAIRERVTEVLGLVGLEDRADALPSELSGGEQQRVAIARAIVNKPKVVIADEPTGNLDIETALDIMKIFTRINERGTTIVMATHNADIVNTIRHRVIAIEGGKIVRDEIEGGYGYEG | not soluble
20 | MKAKLKQLRRLVESSFPEIENFHEKVDASFEKLENAKSFWSEIYVAHLKVVGDGVKVPESVFIKVPRISENVLRCEDESAVNHLNDVLLYYSKKENLFYKHFEYGSIPNFPFPKVYFTEDINGEATGGIVAENLSEKVFAVEHIPGLKHEQILRLMEALAGLHSFLMKRDDKSYVESFVEGAHGRETFSEGMQNMMFEEALTLENVSPEVFGNDRIRNIKWSFDYSIKNKATADAISAFPGIICHADLNVTNVLWKKDSAKDEISAIIDYQMLFIGSIAFDIIRVLTLGLNREIRRKMTQNYLDHYHKTLTELSNGKAPFSMEELLHQYSLIYPFSSNFSLFGIALYIKMYSDGTLGNPEDKEENCKELIDRALGIVEDIEALKNNYK | not soluble
21 | MKAKPLSQDPGSKRYAYRINKEENRKELKHVKINESSLVQEGQKIDLPKKRYYRQRAHSNPFSDHQLEYPVSPQDMDWSKLYPYYKNAENGQMTKKVTIADIGCGFGGLMIDLSPAFPEDLILGMEIRVQVTNYVEDRIIALRNNTASKHGFQNINVLRGNAMKFLPNFFEKGQLSKMFFCFPDPHFKQRKHKARIITNTLLSEYAYVLKEGGVVYTITDVKDLHEWMVKHLEEHPLFERLSKEWEENDECVKIMRNATEEGKKVERKKGDKFVACFTRLPTPAIL | soluble
22 | MKALALFSGGLDSLLSMKLIQEMGIEVVALHFNIGFGANRDKLEYLQNATAQIGVELRVLDIQEQFFNEVLFNPVHGYGKYFNPCIDCHANMFRHALRLLEGEGASFIISGEVIGQRPKSQRREALHQVENLTQTKGLILRPLSAKLLPPTLAEERGWVDREKLLDIHGRGRDRQLAMAKSYGWVYFE | not soluble
23 | MKALERTVTVKGLAEKEVKANIAIWPINFTEVDNNLPKLYETVQLKTDKVVAFLKERGFSDSEITISLPSIEDRQAQGYVDPNVKYRYSAKVNLSVYTSQIDLMLSSRKQMINLVKEGIAIASQDYENRTEFLFTQLNDVKPTMVQEATQNAREVAEKFAKDSESRLGKIKSASQGQFTISDRDSSTPYIKQIRIVSTLTYYLNDLEHHHHHH | not soluble
24 | MKAMHVAQPAVVLASSRGIASFVCEYASPGKATEVRVTVLRQADSQVTEVCAATYMMGNELTFLDDSICTGTSSGNQVNLTIQGLRAMDTGLYICKVELMYPPPYYLGIGNGTQIYVIDPEPSPDSDLVPR | soluble
